Test results from the nanobody polyreactivity screen of Harvey et al. (2022).

Assay: yeast display, Sf9 membrane polyspecificity reagent, FACS + sequencing; frameworks hold sequencing errors
Outline: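 A nanobody's polyreactivity label depends on the gate it was sorted from. Yeast display cells were stained with 10% biotinylated, detergent-solubilized Sf9 membrane reagent for 1 hour at 4 °C, enriched on streptavidin microbeads and sorted by FACS. The low and high (top ~1%) gates were set on anti-HA fluorescence for expression and streptavidin fluorescence for reagent binding.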

QVQLVESGGGLVQAGGSLRLSCAASGYTFFTNAMGWYRQAPGKEREFVAAISKSGGNTYYADSVKGRFTISRDNAKNTVYLQMNSRKPEDTAVYYCAAQHRGYAGPRPYYYWGQGTQVTVSS
polyreactivity (PSR sort gate): high polyreactivity

QVQLVESGGGLVQAGGSLRLSCAASGYTFFTNVMGWYRKAPGKERELVATITAGGSTYADSVKGRFTISRDNAKNTFYLQMNSLKPEDTAVYYCAVDALTGAWLGGYPYWADGYDYWGQGTQVTVSS
polyreactivity (PSR sort gate): low polyreactivity

QVQLVESGGGLVQAGGSLRLSCAASGYTFFVYAMGWYRQAPGKERELVAAIDLNGGSTSYADSVKGRFTISRDNAKNTVYLQMNSLKPEDTAVYYCAAYSWVGYDYDYWGQGTQVTVSS
polyreactivity (PSR sort gate): low polyreactivity

QVQLVESGGGLVQAGGSLRLSCAASGYTFGFYTRGWYRQAPGKERELVAGISWSGGSTYYADSVKGRFTISRDNAKNTVYLQMNSLKPEDTAVYYCATRWRGRYDYWGQGTQVTVSS
polyreactivity (PSR sort gate): high polyreactivity

QVQLVESGGGLVQAGGSLRLSCAASGYTFGGNAMGWYRQAPGKERELVAAISSGGSTNYADSVKGRFTISRDNAKNTVYLQMNSLKPEDTAVYYCNKRGYYYWSGQDVASYDYWGQGTQVTVSS
polyreactivity (PSR sort gate): low polyreactivity

QVQLVESGGGLVQAGGSLRLSCAASGYTFGKNAMGWYRQAPGKERELVAAISRSGGSTFYADSVKGRFTISRDNAKHTVYLQMNSLKPEDTAVYYCAARSYVRFDYWGQGTQVTVSS
polyreactivity (PSR sort gate): high polyreactivity

QVQLVESGGGLVQAGGSLRLSCAASGYTFGQYAMGWYRQAPGKEREFVAAINRSGGSTYYADSVKGRFTISRDNAKNTVYLQMNSLKPEDTAVYYCNAGYRRSSHFREHDYWGQGTQVTVSS
polyreactivity (PSR sort gate): high polyreactivity

QVQLVESGGGLVQAGGSLRLSCAASGYTFGRYAMGWYSQAPGKERELVAAITKSGGRTSYADSVKGRFTISRDNEKNTVYLQMTSLKPEDTAVYYCNKVRFQPYWVVYATGDYWGQGTQVTVSS
polyreactivity (PSR sort gate): high polyreactivity

QVQLVESGGGLVQAGGSLRLSCAASGYTFGSNAMGWYRQAPGKERELVAAIRYRGDRTYYADSVKGRFTISRDNAKNTVYLQMNSLKPEDTAVYYCAATYGYNTLYRPLRFDYWGQGTQVTVSS
polyreactivity (PSR sort gate): high polyreactivity

QVQLVESGGGLVQAGGSLRLSCAASGYTFGSNAMGWYRQAPGKERELVADIDWSSGNTYYADSVKGRFTISRDNAKNTVYVQMNSLKPEDTAVYYCAAELLIYYSWYWYDYWGQGTQVTVSS
polyreactivity (PSR sort gate): high polyreactivity

QVQLVESGGGLVQAGGSLRLSCAASGYTFGSYAMGWYRQAPGKERELVAAISKRGGRTYYADSVKGRFTISRDNAKNTVYLQMNSLKPEDTAVYYCAKDYPKYDYWGQGTQVTVSS
polyreactivity (PSR sort gate): high polyreactivity

QVQLVESGGGLVQAGGSLRLSCAASGYTFGVNAMGWYRQAPGKERELVAAISRSGGRTYYADSVKGRFTISRDNAKNTVYLQMTSLKPEDTAVYYCAKDRSGSYYNFPEYDYWGQGTQVTVSS
polyreactivity (PSR sort gate): high polyreactivity

QVQLVESGGGLVQAGGSLRLSCAASGYTFGVYVMGWYREAPGKERELVAAISGSTYYADSVKGRFTISRDNAKNTVYVQMNSLKPEDTAVYYCAAESYFFSPRTREKFDYWGQGTQVTVSS
polyreactivity (PSR sort gate): low polyreactivity

QVQLVESGGGLVQAGGSLRLSCAASGYTFGVYVMGWYRQAPGKERELVAAISGSTYYADSVKGRFTISRDNAKNTVYLQMNSLKPEDTAVYYCAAESYFFSPRTREKFDYWGQGTQVTVTS
polyreactivity (PSR sort gate): low polyreactivity

QVQLVESGGGLVQAGGSLRLSCAASGYTFIRNGMGWYRQAPGKERDLVAAISRRGGSTYYADSVKGRFTISRDNAKNTVYLQMNRLKPEDTAVYYCAKASTERMGSWGQGTQVTVSS
polyreactivity (PSR sort gate): high polyreactivity

QVQLVESGGGLVQAGGSLRLSCAASGYTFIYYAMGWYRQAPGTERELVATISIDGSTNYADSVKGRFTISRDNAKNTVYLQMNSLKPEDTAVYYCNRERYEDYDYWGQGTQVTVSS
polyreactivity (PSR sort gate): high polyreactivity

QVQLVESGGGLVQAGGSLRLSCAASGYTFKRYAMGWYRQAPGKERELVAAISQSGTNTYYADSVKGRFTISRDNAKNTVYLQMNSLKPEDTAVYYCAAKPPRRYQLMDYWGQGTQVTVSS
polyreactivity (PSR sort gate): high polyreactivity

QVQLVESGGGLVQAGGSLRLSCAASGYTFKSYALGWYRQAPGKERELVASISNDGSTNYADSVKGRFTISRDNAKNTVYLQMNSLKPEDTAVYYCNADFYDAPSQWARTGFDYWGQGTQVTVSS
polyreactivity (PSR sort gate): low polyreactivity

QVQLVESGGGLVQAGGSLRLSCAASGYTFKTNDMGRYRQAPGKEREFVAAIDSGGNTYYADSVKGRFTISRDNAKITVYLQMNSLIPEDTAVYYCGAYRDYQYDYWGQGTQVTVSS
polyreactivity (PSR sort gate): low polyreactivity

QVQLVESGGGLVQAGGSLRLSCAASGYTFKYYTMGWSRQAPGKERELVAAITGGGSTYYADSVKGRFTISRDNAKNTVYLQMNSLKPEDTAVYYCAATVLYGYHKAYDYWGQGTQVTVSS
polyreactivity (PSR sort gate): high polyreactivity

QVQLVESGGGLVQAGGSLRLSCAASGYTFKYYTMGWYRQAPGKESELVAAITRSGGSTYYADSVKGRFTISRDNAKNTVYLQINSLKPEDTAVYYCAARAAYKQPVSFDYWGQGTQVTVSS
polyreactivity (PSR sort gate): high polyreactivity

QVQLVESGGGLVQAGGSLRLSCAASGYTFLGNAMGWYRQAPGKERELVAAISSGGTTYYADSVKGRFTISRDNAKNTVYLQMNSMKPEDTSVYYCADDRVGLSSGYDFWGQGTQVTVSS
polyreactivity (PSR sort gate): low polyreactivity

QVQLVESGGGLVQAGGSLRLSCAASGYTFLGNAMGWYRQAPGKERELVAAISSGGTTYYADSVKGRFTISRDNEKNTVYFQMNSLKPEDTAVYFCATVFRDYDFNHWGQGTQVTVSS
polyreactivity (PSR sort gate): low polyreactivity

QVQLVESGGGLVQAGGSLRLSCAASGYTFLPYALGWYRQAPGKERELVAAINWGGGSTYYADSVKGRFTISRDNAKNTVYLQMNSLKPEDTAVYYCNAKRPFGGLDYWGQGSQVTVSS
polyreactivity (PSR sort gate): low polyreactivity

QVQLVESGGGLVQAGGSLRLSCAASGYTFLPYAMGLYRQAPGKERELVADISSGGTTYYADSVKGRFTISRDNAKNTVYLQMNSLKPEDTAVYYCARASLPTYDWGQGTQVTVSS
polyreactivity (PSR sort gate): low polyreactivity

QVQLVESGGGLVQAGGSLRLSCAASGYTFLRYAMGWYRQAPGKERELVAAISRRGGRTYYADSVKGRFTISRDNAKNTVYLQMNSLKPEDTAVYYCAAVNSTQTIGLMDYWGQGTQVTVSS
polyreactivity (PSR sort gate): high polyreactivity

QVQLVESGGGLVQAGGSLRLSCAASGYTFLYNAMGWYRQAPGKERELVAAISWNGGRTYYADSVKGRFTISRDNAKNTVYLQMNSLKPEDTAVYYCAKTPSYGRNVDYWGQGTQVTVSS
polyreactivity (PSR sort gate): high polyreactivity

QVQLVESGGGLVQAGGSLRLSCAASGYTFNIYAMGWYRQAPGKERELVAAITSRGGGTYYADSVKGRFTISRDNAKNTVYLQMNSLKPEDTAVYYCAADVYSYYHWYTHYDYWGQGTQVTVSS
polyreactivity (PSR sort gate): high polyreactivity

QVQLVESGGGLVQAGGSLRLSCAASGYTFNYYAMGWYRQAPGKEREFVASTYADSVKGRFTISRDNAKNTVYLQMNSLKPEDTAVYYCNARNLGRYLVLSYGYWRQGTQVTVSS
polyreactivity (PSR sort gate): low polyreactivity

QVQLVESGGGLVQAGGSLRLSCAASGYTFPFYTMGWYRQAPGKERELVAAISNSGTSTYYADSVKGRFTISRHNAKNTVYLQMNSLKPEDTAVYYSNAGRGTRFVYIDGMDYWGQGTQVTVSS
polyreactivity (PSR sort gate): high polyreactivity

QVQLVESGGGLVQAGGSLRLSCAASGYTFPSNAMGWYREAPGKERELVAAISSGARTNYADSVKGRFTISRDNAKNTVYLQMNSLKPEDTAVYYCNKAAASFRHFYGYGYWGQGTQVTVSS
polyreactivity (PSR sort gate): low polyreactivity

QVQLVESGGGLVQAGGSLRLSCAASGYTFQAYAMGWYRQAPGKERELVAAISFSSGSTYYADSVKGRFTISRDNAKNTVYLQMNSLKPVDTAVYYCATDYPYYGYDYWGHGTQVTVSS
polyreactivity (PSR sort gate): low polyreactivity

QVQLVESGGGLVQAGGSLRLSCAASGYTFQKYAMGWYIQAPGKERELVAAITRSGTRTYYADSVKGRFTISRDNAKNTVYLQMNSLKPEDTAVYYCAAETYYSIYDYWGQGTQVTVSS
polyreactivity (PSR sort gate): high polyreactivity

QVQLVESGGGLVQAGGSLRLSCAASGYTFQKYAMGWYRQAPGKERELVAAITRSGTRTYYADSVKGRFTISRDNAKNTVYFQMNSLKPEDTAVYYCAAETYYSIYDYWGQGTQVTVSS
polyreactivity (PSR sort gate): high polyreactivity

QVQLVESGGGLVQAGGSLRLSCAASGYTFRAYAMGWYRQAPGKEREYVAAISRSGGSTYYADSVKGRFTISRDNAKNTVYLQMNSLKPEDTAVYYCNKVYRWAGYDYWGQGSQVTVSS
polyreactivity (PSR sort gate): high polyreactivity

QVQLVESGGGLVQAGGSLRLSCAASGYTFRAYVMGWYRQAPGKERELVAGITRRGGTTYYADSVKGRFTISRDNAKNTVYLQMNSLKPEDTAVYYCNAVFRSGSIPYDSWGQGTQVTVSS
polyreactivity (PSR sort gate): high polyreactivity

QVQLVESGGGLVQAGGSLRLSCAASGYTFRHYAMGWYRQEPGKERELVAAITFNGGTTYYADSVKGRFTISRDNAKNTVYLQMNSLKPEDTAVYYCNALPYSRGRWRPLSAVDYWGQGTQVTVSS
polyreactivity (PSR sort gate): high polyreactivity

QVQLVESGGGLVQAGGSLRLSCAASGYTFRSYTMGWYRQAPGKERELVAAITSRGTSTYYADSVKGRFTISRDNAKNTVYLQMNSLKPEDTAVYYCAAPIYNGYASWQVYYWGQGTQVTVSS
polyreactivity (PSR sort gate): high polyreactivity

QVQLVESGGGLVQAGGSLRLSCAASGYTFRWYAMGWYRQAPGKERELVAAISWSTGRTYYADSVKGRFTISRDNAKNTVYLQMNSLKPEDNAVYYCAASYYVYSGGNYLRYDSWGQGTQVTVSS
polyreactivity (PSR sort gate): high polyreactivity

QVQLVESGGGLVQAGGSLRLSCAASGYTFRYYVMGWYIQAPGQERELVATISRGGRTNYADSVKGRFTISRDNAKNTVYLQMNSLKPEDTAVYYCNARTLYAYITRDYWGQGTQVTVSS
polyreactivity (PSR sort gate): high polyreactivity

QVQLVESGGGLVQAGGSLRLSCAASGYTFSFNAMGWYRQAPGKEREFVAAIDFGGAGTYYADSVKGRFTISRDTAKKTVYLQMNSLKPEDTAVYYCNARDGVTTEFDYWGQGTQVTVAS
polyreactivity (PSR sort gate): low polyreactivity

QVQLVESGGGLVQAGGSLRLSCAASGYTFSKNTMGWYRQAPGKEREFVAAINWSGGSTYYADSVKGRFTISRDNAKNTVYLQMNSLKPEDTAVYYCAARRGGRRGYDYWGQGTQVTVSS
polyreactivity (PSR sort gate): high polyreactivity

QVQLVESGGGLVQAGGSLRLSCAASGYTFSNNAMGWYRQAPGKERELVAAISRSTGSTYYADSVKGRFTISRDNAKNTVYLQMNSLKPEDTAVYYCAAEYYVDKSSWYDYWGQGTQVTVSS
polyreactivity (PSR sort gate): high polyreactivity
